T1: human IFN receptor (human, UniProt P17181)
T1 sequence 1: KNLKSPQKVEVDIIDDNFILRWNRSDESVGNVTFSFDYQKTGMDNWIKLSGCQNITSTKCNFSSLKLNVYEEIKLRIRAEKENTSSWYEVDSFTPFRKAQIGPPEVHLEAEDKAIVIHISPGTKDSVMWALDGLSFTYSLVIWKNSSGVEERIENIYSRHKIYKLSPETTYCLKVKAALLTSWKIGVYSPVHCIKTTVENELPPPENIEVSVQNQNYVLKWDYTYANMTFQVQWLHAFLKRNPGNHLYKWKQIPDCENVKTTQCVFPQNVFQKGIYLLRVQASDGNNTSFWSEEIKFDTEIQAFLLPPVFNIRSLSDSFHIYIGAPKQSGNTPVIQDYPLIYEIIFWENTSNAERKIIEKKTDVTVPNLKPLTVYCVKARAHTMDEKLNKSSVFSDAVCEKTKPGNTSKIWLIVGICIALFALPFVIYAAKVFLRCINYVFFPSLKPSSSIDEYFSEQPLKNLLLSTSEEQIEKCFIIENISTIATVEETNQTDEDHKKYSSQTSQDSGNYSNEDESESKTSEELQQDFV
T1 sequence 2: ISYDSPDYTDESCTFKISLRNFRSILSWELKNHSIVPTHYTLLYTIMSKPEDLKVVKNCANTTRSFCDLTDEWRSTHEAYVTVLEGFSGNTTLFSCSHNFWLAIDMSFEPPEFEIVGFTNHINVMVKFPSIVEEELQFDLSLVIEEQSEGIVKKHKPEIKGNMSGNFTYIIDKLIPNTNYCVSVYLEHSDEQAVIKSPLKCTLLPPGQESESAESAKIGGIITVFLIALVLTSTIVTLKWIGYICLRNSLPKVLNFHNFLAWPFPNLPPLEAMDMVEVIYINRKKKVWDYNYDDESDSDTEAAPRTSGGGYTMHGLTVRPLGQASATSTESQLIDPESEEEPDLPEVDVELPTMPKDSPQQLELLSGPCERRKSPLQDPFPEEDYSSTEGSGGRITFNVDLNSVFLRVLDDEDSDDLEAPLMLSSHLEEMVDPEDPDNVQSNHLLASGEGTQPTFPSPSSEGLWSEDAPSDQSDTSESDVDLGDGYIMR

B1: MOD-9016 (ctp-IFNβ-ctp) (ligand)
chain: SSSSKAPPPSLPSPSRLPGPSDTPILPQMSYNLLGFLQRSSNFQCQKLLWQLNGRLEYCLKDRMNFDIPEEIKQLQQFQKEDAALTIYEMLQNIFAIFRQDSSSTGWNETIVENLLANVYHQINHLKTVLEEKLEKEDFTRGKLMSSLHLKRYYGRILHYLKAKEYSHCAWTIVRVEILRNFYFINRLTGYLRNSSSSKAPPPSLPSPSRLPGPSDTPILPQ
B2: MOD-9012 (IFNβ-ctpx2) (ligand)
chain: MSYNLLGFLQRSSNFQCQKLLWQLNGRLEYCLKDRMNFDIPEEIKQLQQFQKEDAALTIYEMLQNIFAIFRQDSSSTGWNETIVENLLANVYHQINHLKTVLEEKLEKEDFTRGKLMSSLHLKRYYGRILHYLKAKEYSHCAWTIVRVEILRNFYFINRLTGYLRNSSSSKAPPPSLPSPSRLPGPSDTPILPQSSSSKAPPPSLPSPSRLPGPSDTPILPQ
B3: MOD-9011 (IFNβ-ctp) (ligand)
chain: MSYNLLGFLQRSSNFQCQKLLWQLNGRLEYCLKDRMNFDIPEEIKQLQQFQKEDAALTIYEMLQNIFAIFRQDSSSTGWNETIVENLLANVYHQINHLKTVLEEKLEKEDFTRGKLMSSLHLKRYYGRILHYLKAKEYSHCAWTIVRVEILRNFYFINRLTGYLRNSSSSKAPPPSLPSPSRLPGPSDTPILPQ
B4: Intl. Standard (IFN-β reference standard calibrated in International Units, National Institute of Allergy and Infectious Diseases (NIH)) (ligand)
chain: MSYNLLGFLQRSSNFQCQKLLWQLNGRLEYCLKDRMNFDIPEEIKQLQQFQKEDAALTIYEMLQNIFAIFRQDSSSTGWNETIVENLLANVYHQINHLKTVLEEKLEKEDFTRGKLMSSLHLKRYYGRILHYLKAKEYSHCAWTIVRVEILRNFYFINRLTGYLRN
B5: Human Interferon-β 1a-MOD-9010 (ligand)
chain: B4 chain

Target: T1, human IFN receptor
Assay: cell-based or functional assay

Binder | IC50 pg/ml (anti-proliferation, Daudi cells) | Specific Activity IU/mg x 10^8, Anti-proliferation (Daudi cells, 72 hours, viable cells) | Specific Activity IU/mg x 10^8, Anti-viral (viral cytopathic effect bioassay, A549 cells challenged with virus)
B1 | 323 pg/mL | 1.97e+08 IU/mg | 3.7e+08 IU/mg
B2 |  |  | 4e+08 IU/mg
B3 | 264 pg/mL | 2.41e+08 IU/mg | 4e+08 IU/mg
B4 | 318 pg/mL |  | 
B5 | 251 pg/mL |  | 3.9e+08 IU/mg
